These results are taken from article PMC6793842 (PLoS Biology, 2019).

Residue numbers refer to the chain shown, from its start.

First the molecules themselves.
T1: P. falciparum P113, biotinylated bait (P. falciparum, UniProt Q8ILP3 23-945, biotin (enzymatic monobiotinylation; site not stated))
T1 construct: source: HEK293E, transient transfection, secreted; enzymatically monobiotinylated bait
T1 sequence: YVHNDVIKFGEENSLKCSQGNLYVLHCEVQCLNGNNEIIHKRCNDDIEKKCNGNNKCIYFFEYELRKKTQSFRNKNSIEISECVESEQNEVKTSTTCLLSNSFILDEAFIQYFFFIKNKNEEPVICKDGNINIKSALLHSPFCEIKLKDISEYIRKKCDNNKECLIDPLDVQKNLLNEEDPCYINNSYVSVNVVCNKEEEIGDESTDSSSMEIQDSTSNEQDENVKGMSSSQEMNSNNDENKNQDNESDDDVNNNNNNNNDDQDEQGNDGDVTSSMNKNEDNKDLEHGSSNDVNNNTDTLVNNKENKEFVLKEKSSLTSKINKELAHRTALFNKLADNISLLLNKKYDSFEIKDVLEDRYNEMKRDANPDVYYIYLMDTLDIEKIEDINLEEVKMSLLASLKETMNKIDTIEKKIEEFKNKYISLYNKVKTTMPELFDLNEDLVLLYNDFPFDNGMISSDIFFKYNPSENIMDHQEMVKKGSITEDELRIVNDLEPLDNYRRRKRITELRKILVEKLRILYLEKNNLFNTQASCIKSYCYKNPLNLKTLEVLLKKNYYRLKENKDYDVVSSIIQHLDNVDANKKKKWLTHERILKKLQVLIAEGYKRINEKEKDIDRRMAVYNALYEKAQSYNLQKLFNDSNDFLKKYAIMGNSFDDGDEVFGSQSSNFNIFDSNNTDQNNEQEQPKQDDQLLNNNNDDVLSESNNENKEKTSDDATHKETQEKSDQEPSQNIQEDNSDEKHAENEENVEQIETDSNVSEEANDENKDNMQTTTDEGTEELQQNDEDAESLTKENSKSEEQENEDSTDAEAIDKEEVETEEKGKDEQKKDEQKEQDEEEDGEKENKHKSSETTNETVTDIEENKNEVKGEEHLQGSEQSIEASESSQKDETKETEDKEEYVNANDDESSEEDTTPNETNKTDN

T2: P. falciparum RH5 (reticulocyte-binding protein homologue 5) (P. falciparum (3D7), UniProt Q8IFM5 25-526)
T2 sequence: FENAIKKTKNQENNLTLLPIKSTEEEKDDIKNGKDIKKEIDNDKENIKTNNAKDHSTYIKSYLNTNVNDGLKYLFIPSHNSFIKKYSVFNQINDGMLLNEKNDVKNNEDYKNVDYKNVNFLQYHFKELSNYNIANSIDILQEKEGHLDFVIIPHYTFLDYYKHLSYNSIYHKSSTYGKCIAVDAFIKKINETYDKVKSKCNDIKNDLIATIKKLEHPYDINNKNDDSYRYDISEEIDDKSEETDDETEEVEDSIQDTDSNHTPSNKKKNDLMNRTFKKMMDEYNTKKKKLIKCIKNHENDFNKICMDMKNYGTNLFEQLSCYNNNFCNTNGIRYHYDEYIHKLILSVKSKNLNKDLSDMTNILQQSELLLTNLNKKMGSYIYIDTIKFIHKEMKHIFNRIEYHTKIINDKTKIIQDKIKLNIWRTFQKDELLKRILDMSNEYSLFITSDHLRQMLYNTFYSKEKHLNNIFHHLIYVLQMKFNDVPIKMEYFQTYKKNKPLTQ

B1: chimpanzee basigin, entire ectodomain (receptor)
chain: ASGAAGTVFTTVEDLGSKILLTCYMNDSATEVTGHRWLKGGVVLEEDALPGQKTEFKVDSDDQWGEYSCVFLPEPMGTANIQLHGPPRVKAVKSSEHINEGETAVLVCKSESVPPVTDWAWYKITDSGDKALMNGSESRFFVSSLQGRSELHIENLNMEADPGQYRCNGNSSEGSDQAVITLRVRSHLA
modifications: enzymatically monobiotinylated
B2: introgressed ancestral RH5 (reticulocyte-binding protein homologue 5) (ligand)
chain: T2 sequence with H124D, S173Y, Y176H, C179Y, T192R, K195Q
B3: P. falciparum RH5 (reticulocyte-binding protein homologue 5) (ligand)
chain: T2 sequence
B4: human basigin, entire ectodomain (receptor)
chain: EPGTVFTTVEDLGSKILLTCSLNDSATEVTGHRWLKGGVVLKEDALPGQKTEFKVDSDDQWGEYSCVFLPEPMGTANIQLHGPPRVKAVKSSEHINEGETAMLVCKSESVPPVTDWAWYKITDSEDKALMNGSESRFFVSSSQGRSELHIENLNMEADPGQYRCNGTSSKGSDQAIITLRVRSHLAAL
modifications: enzymatically monobiotinylated
notes: also called HsBSG; BSG; source: HEK293E, transient transfection, secreted, enzymatically monobiotinylated

What all share (test): SPR
Conditions in all cases: both partners purified

One assay deals with P. reichenowi RH5 (P. reichenowi, UniProt B4X6H6 1-535).
For the next assay, the target named is P. gaboni RH5 (P. gaboni).
Assay [1] concerns the target T3, gorilla basigin, entire ectodomain (gorilla, enzymatically monobiotinylated).
T3 construct: also called gorilla BSG; source: HEK293E, transient transfection, secreted, enzymatically monobiotinylated

Assay [2] deals with B4.
Assay [3] has as its target T1, P. falciparum P113, biotinylated bait.
Assay [4] deals with T2, P. falciparum RH5 (reticulocyte-binding …).

As usually defined, the Kd is the equilibrium constant for the complex coming apart. The low end stands for higher affinity, the high end for lower affinity. Consider B1, for which the figures for the Kd in the assay with P. reichenowi RH5 and in the assay with P. gaboni RH5 were 4300 ± 500 nM and 2900 ± 100 nM, respectively.

As for B2, the figures for the Kd in assay [1] and in assay [2] were 3000 ± 300 nM and 2300 ± 100 nM, respectively.

As to B3, the binding result in assay [3] is given as “binds”.

In turn, B4 came in with a Kd in assay [4] of 1500 ± 200 nM.
